According to paper doi:10.1101/2021.05.21.445086:

Target: mS105 (Chlamydomonas reinhardtii (endogenous in strain CC-4351))
Experiment: cryo-EM structure

mS105 (natural protein)
stoichiometry N: 3
